This is an account of results in doi:10.1101/2020.05.13.094045.

Experiment [1] concerns the target AP_SAP11-like_PM19-GFP ('Candidatus Phytoplasma mali' strain PM19). The experiment is described as follows: FRET or BRET.
For experiment [2], the target named is AP_SAP11-like_PM19^Δ40-56-GFP ('Candidatus Phytoplasma mali' strain PM19). The experiment is described as follows: FRET or BRET. On the technique in general: In BRET a luciferase serves as donor, and the signal depends on an acceptor being close.

B1: AtTCP13-RFP (natural protein)
chain: MNIVSWKDANDEVAGGATTRREREVKEDQEETEVRATSGKTVIKKQPTSISSSSSSWMKSKDPRIVRVSRAFGGKDRHSKVCTLRGLRDRRVRLSVPTAIQLYDLQERLGVDQPSKAVDWLLDAAKEEIDELPPLPISPENFSIFNHHQSFLNLGQRPGQDPTQLGFKINGCVQKSTTTSREENDREKGENDVVYTNNHHVGSYGTYHNLEHHHHHHQHLSLQADYHSHQLHSLVPFPSQILVCPMTTSPTTTTIQSLFPSSSSAGSGTMETLDPRQMVSHFQMPLMGNSSSSSSQNISTLYSLLHGSSSNNGGRDIDNRMSSVQFNRTNSTTTANMSRHLGSERCTSRGSDHHM
On to B1, for which the FRET efficiency was 9% in experiment [1] and 8% in experiment [2].

B2: AtTCP4-RFP (natural protein)
chain: MSDDQFHHPPPPSSMRHRSTSDAADGGCGEIVEVQGGHIVRSTGRKDRHSKVCTAKGPRDRRVRLSAHTAIQFYDVQDRLGFDRPSKAVDWLIKKAKTSIDELAELPPWNPADAIRLAAANAKPRRTTAKTQISPSPPPPQQQQQQQQLQFGVGFNGGGAEHPSNNESSFLPPSMDSDSIADTIKSFFPVIGSSTEAPSNHNLMHNYHHQHPPDLLSRTNSQNQDLRLSLQSFPDGPPSLLHHQHHHHTSASASEPTLFYGQSNPLGFDTSSWEQQSSEFGRIQRLVAWNSGGGGGATDTGNGGGFLFAPPTPSTTSFQPVLGQSQQLYSQRGPLQSSYSPMIRAWFDPHHHHQSISTDDLNHHHHLPPPVHQSAIPGIGFASGEFSSGFRIPARFQGQEEEQHDGLTHKPSSASSISRH
In experiment [1], B2 came in with an FRET efficiency of 11%.
